According to PMC11790763, “A Peptide Motif Covering Splice Site B in Neuroligin-1 Binds to Aβ and Acts as a Neprilysin Inhibitor” (Molecular Neurobiology, 2024):

What was measured:
[1] = target: Biotinylated amyloid-β peptide 1-40 (Aβ1-40); assay: ELISA; competitive ELISA: NL1 (3.125 nM) coated on the plate; biotinylated Aβ1-40 (400 nM; Aβ40-1 as negative control) premixed 30 min with serially diluted NL1 or NL1-derived peptides; 4 h at room temperature; streptavidin-HRP; IC50 interpreted as KD
[2] = target: T1, recombinant rat NL1 (Rattus norvegicus, UniProt Q62765); assay: Surface plasmon resonance binding to immobilized NL1; settings: SPR, Biacore 2000, 25 °C, HBS-P pH 7.4 + 3 mM CaCl2; analyte injected over NL1 immobilized on CM4 chip, 20 μl/min; 1:1 Langmuir model; four independent experiments
T1 construct: the extracellular domain of NL1 was immobilized on a sensor chip; purchased R&D systems (Abingdon, UK)
T1 sequence (Q62765 46-697 limits assumed): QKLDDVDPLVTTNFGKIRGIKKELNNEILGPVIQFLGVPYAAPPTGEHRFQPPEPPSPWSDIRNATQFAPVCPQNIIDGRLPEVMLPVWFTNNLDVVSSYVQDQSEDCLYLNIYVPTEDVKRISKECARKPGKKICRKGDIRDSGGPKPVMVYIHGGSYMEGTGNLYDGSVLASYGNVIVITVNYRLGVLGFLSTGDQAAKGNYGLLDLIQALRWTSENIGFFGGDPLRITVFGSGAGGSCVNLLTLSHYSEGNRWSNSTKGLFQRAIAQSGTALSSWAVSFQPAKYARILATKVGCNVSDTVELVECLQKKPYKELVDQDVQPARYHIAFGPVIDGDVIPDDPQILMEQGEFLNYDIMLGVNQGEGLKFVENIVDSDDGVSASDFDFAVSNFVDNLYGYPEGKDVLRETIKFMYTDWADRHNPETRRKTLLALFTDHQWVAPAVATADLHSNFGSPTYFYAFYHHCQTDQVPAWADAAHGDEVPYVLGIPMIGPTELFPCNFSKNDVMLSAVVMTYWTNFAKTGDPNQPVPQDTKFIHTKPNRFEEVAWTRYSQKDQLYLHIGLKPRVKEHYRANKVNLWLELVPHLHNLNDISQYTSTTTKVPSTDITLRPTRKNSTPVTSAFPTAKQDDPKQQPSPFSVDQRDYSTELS
Method: Binding analysis was performed on a Biacore 2000 SPR biosensor (GE Healthcare) at 25 °C using HBS-P (10 mM HEPES, pH 7.4, 150 mM NaCl, 0.005% [v/v] Surfactant P20) supplemented with 3 mM CaCl2 as a running buffer. Approximately 2000 Resonance Units (RU) of NL1 was immobilized on a CM4 sensor chip at a flow rate of 5 μl/min by amine coupling. Binding to serially diluted recombinant NX1β, used as a positive control, was performed as previously described. Aβ1-42 was dissolved in anhydrous DMSO to a stock concentration of 3.21 mM followed by serial dilution in running buffer. Peptide was injected into the chip, and binding experiments were performed at a flow rate of 20 μl/min, followed by regeneration of sensor chip with 10 μl of 15 mM NaOH and 150 mM NaCl. After subtraction of blank control, the binding curves were analyzed based on a nonlinear curve fitting using a 1:1 Langmuir binding model and the software package BIAevaluation 4 (GE Healthcare). The apparent equilibrium constant (KD) was calculated as kd/ka, in which ka and kd are the apparent association and dissociation constants, respectively.

Substance	Kd [1]	Kd [2]
Recombinant rat neuroligin-1 (NL1), soluble extracellular domain (from UniProt Q62765 46-697) (domain or fragment)	19.9 nM	
NX1β: recombinant neurexin-1β, positive control for binding to NL1		6.64 nM
